Assay results from paper PMC6284106.

Columns and labels:
[1] = molecular target: human IL-2Rβγ heterodimeric Fc fusion (human) (UniProt P14784)
[2] = molecular target: human IL-2Rβγ heterodimeric Fc fusion (human) (UniProt P14784); experiment: SPR; Biacore T200; biotinylated IL2Rβγ-Fc heterodimer immobilised on streptavidin chips; fusion proteins injected 1.2-300 nM for 2 min, dissociation 10 min; regeneration 3 M MgCl2; global 1:1 model, 'apparent' KD (bivalent binding of the dimeric fusions)
[3] = molecular target: cynomolgus IL-2Rβγ heterodimeric Fc fusion (cynomolgus) (UniProt Q38J85); experiment: as above
[4] = molecular target: cynomolgus IL-2Rα, monomeric, his-tagged (cynomolgus); experiment: SPR; Biacore T200; monomeric his-tagged IL-2Rα immobilised by amine coupling on CM5 chips; 2-fold dilution series (0.41 nM-300 nM) of the IL-2 fusion protein injected for 90 s, dissociation 3 min; regeneration 10 mM glycine pH 1.5; steady state model
[5] = molecular target: human IL-2Rα, monomeric, his-tagged (human) (UniProt P01589); experiment: as above
Sequence of UniProt P01589 (P01589 22-272): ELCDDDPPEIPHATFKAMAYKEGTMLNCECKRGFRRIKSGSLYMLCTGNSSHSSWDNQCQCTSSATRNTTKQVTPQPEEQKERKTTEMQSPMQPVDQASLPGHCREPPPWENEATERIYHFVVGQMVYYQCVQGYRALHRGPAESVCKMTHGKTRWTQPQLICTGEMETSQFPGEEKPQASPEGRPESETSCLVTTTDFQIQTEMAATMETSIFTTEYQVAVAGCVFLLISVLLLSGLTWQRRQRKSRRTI

[6] = molecular target: human IL-2Rβγ heterodimeric Fc fusion (human) (UniProt P14784); remark: listed apart in the source

Substance	Kd [2] [nM]	Kd [3] [nM]	Kd [4] [nM]	Kd [5] [nM]	other results
IgG-(IL-2)2 (from UniProt P60568 21-153)	0.003	0.04			EC50 of pSTAT5 induction in memory and naïve Tregs, human whole blood [1]: 0.3 pM
IgG-(IL-2)2 (wild-type dimer: two human IL-2 fused to a non-targeted, effector-silent human IgG1) (from UniProt P60568 21-153)			15	5	
IgG-(IL-2N88D)2 (from UniProt P60568 21-153)	0.24	0.57			EC50 of pSTAT5 induction in CD4+ effector memory T cells, human whole blood [6]: > 10000 pM; EC50 of pSTAT5 induction in CD4+ naïve Tregs, human whole blood [6]: 18 pM; EC50 of pSTAT5 induction in CD56bright NK cells, human whole blood [6]: > 1000 pM
IgG-(IL-2N88D)2 (two human IL-2 N88D muteins fused to a non-targeted, effector-silent human IgG1) (from UniProt P60568 21-153)			30	22	
IgG-IL-2 (from UniProt P60568 21-153)	0.04	0.18			
IgG-IL-2 (wild-type monomer: one human IL-2 fused to a non-targeted, effector-silent human IgG1) (from UniProt P60568 21-153)			30	15	
